Experimental data reported in article PMC10441885.

Biological target: recombinant PsCAT1 fusion protein (His6-SUMO-PsCAT1 without the signal peptide, from pET15b-SUMO-PsCAT1) (Puccinia striiformis f. sp. tritici)
Assay: SEC

Substance: recombinant PsCAT1 fusion protein (His6-SUMO-PsCAT1 without the signal peptide, from pET15b-SUMO-PsCAT1) (enzyme)
- stoichiometry N: 23
